Assay results published in patent publication US20110033389A1 (published 2011).

B1: AC8FabTAT (Fab, V domains shown)
VH: QVQLVQSGAEVKKPGSSVKVSCKASGGSFSSYAINWVRQAPGQGLEWMGGLMPIFGTTNYAQKFQDRLTITADVSTSTAYMQLSGLTYEDTAMYYCARVAYMLEPTVTAGGLDVWGQGTTVTVAS
VL: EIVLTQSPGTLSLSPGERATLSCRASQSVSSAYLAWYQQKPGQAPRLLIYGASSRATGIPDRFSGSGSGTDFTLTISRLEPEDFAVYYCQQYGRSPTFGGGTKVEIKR
B2: AC8 Fab (Fab, V domains shown)
VH: B1 VH
VL: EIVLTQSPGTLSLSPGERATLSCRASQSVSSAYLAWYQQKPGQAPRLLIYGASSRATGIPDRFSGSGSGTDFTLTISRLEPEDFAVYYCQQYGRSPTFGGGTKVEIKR

Tests used:
Assay in all cases: cell-based or functional assay
[1] = biological target: T1, glycoprotein D of Herpes simplex virus, on HSV-1 virus (Herpes simplex virus (HSV-1 virus in …, UniProt A1Z0Q5 26-394))
[2] = biological target: T1, glycoprotein D of Herpes simplex virus, …; remark: listed apart in the source
[3] = biological target: T1, glycoprotein D of Herpes simplex virus, …; remark: listed apart in the source

Row | Binder | Plaque Reduction Rate Percentage (Average plaque number per plate) at 0.012 µg/ml; HSV-1 neutralization in solution [1] [%] | Plaque Reduction Rate Percentage (Average plaque number per plate) at 0.037 µg/ml; HSV-1 neutralization in solution [1] [%] | Plaque Reduction Rate Percentage (Average plaque number per plate) at 0.11 µg/ml; HSV-1 neutralization in solution [1] [%] | Plaque Reduction Rate Percentage (Average plaque number per plate) at 0.33 µg/ml; HSV-1 neutralization in solution [1] [%] | Plaque Reduction Rate Percentage (Average plaque number per plate) at 1 µg/ml; HSV-1 neutralization in solution [1] [%] | Plaque Reduction Rate Percentage (Average plaque number per plate) at 3 µg/ml; HSV-1 neutralization in solution [1] [%] | Plaque Reduction Rate Percentage (Average plaque number per plate) at 0.2 µg/ml; virus prevention assay (cells pre-treated with antibody, washed, then HSV-1) [2] [%] | Plaque Reduction Rate Percentage (Average plaque number per plate) at 0.6 µg/ml; virus prevention assay (cells pre-treated with antibody, washed, then HSV-1) [2] [%] | Plaque Reduction Rate Percentage (Average plaque number per plate) at 1.9 µg/ml; virus prevention assay (cells pre-treated with antibody, washed, then HSV-1) [2] [%] | Plaque Reduction Rate Percentage (Average plaque number per plate) at 5.6 µg/ml; virus prevention assay (cells pre-treated with antibody, washed, then HSV-1) [2] [%] | Plaque Reduction Rate Percentage (Average plaque number per plate) at 16.7 µg/ml; virus prevention assay (cells pre-treated with antibody, washed, then HSV-1) [2] [%] | Plaque Reduction Rate Percentage (Average plaque number per plate) at 50 µg/ml; virus prevention assay (cells pre-treated with antibody, washed, then HSV-1) [2] [%] | ED50 against HSV-1 infection; virus prevention assay (cells pre-treated with antibody, washed, then HSV-1) [3] [µg/mL] | ED50; plaque reduction assay, HSV-1 neutralization in solution [3] [µg/mL]
1 | B1 | 0 | 14 | 33 | 77 | 100 | 100 | 0 | 0 | 0 | 13 | 37 | 68 | 27 | –
2 | B2 | – | – | – | – | – | – | – | – | – | – | – | – | – | ~0.2
